In patent publication US20180117174A1 (GANYMED PHARMACEUTICALS, published 2018):

Key:
[1] = target: human claudin 18 splice variant 1 (CLDN18.1) (human, UniProt P56856 1-261); assay: flow cytometry, HEK293 cells stably expressing CLDN18.1 (column 'CLDN18.1 reactive')
[2] = target: T1, human claudin 18 splice variant 2 (CLDN18.2) (human); assay: flow cytometry, HEK293 cells stably expressing CLDN18.2; APC-conjugated secondary antibody; binding assay 3
T1 construct: also called claudin 18 isotype 2
Method: (§1) 100 μl of the cell suspension per well (correspond to 2×10⁵ cells/well) were transferred to a round bottom 96-well microtiter plate. […] The cells were centrifuged for 1 min at 1500 rpm and the supernatant was discarded. […] After incubation, 100 μl FACS buffer were added to each sample, the cells were centrifuged for 1 min at 1500 rpm and the supernatant was discarded. The washing step with FACS buffer was repeated twice. Finally, the cells were resuspended in 100 μl FACS buffer and binding was determined using a BD FACS Array Bioanalyzer.

[3] = target: T1, human claudin 18 splice variant 2 …; assay: flow cytometry, HEK293 cells stably expressing CLDN18.2; APC-conjugated secondary antibody; binding assay 3; normalized to IMAB362
Method: as §1

[4] = target: T1, human claudin 18 splice variant 2 …; assay: cell-based or functional assay
[5] = target: T1, human claudin 18 splice variant 2 …; assay: cell-based or functional assay; remark: listed apart in the source
[6] = target: T1, human claudin 18 splice variant 2 …; assay: cell-based or functional assay; remark: listed apart in the source
[7] = target: T1, human claudin 18 splice variant 2 …; assay: flow cytometry on BxPC-3~CLDN18.2 cells, second assay
[8] = target: T1, human claudin 18 splice variant 2 …; assay: flow cytometry on BxPC-3~CLDN18.2 cells, antibody up to 20 µg/ml
Method: as §1

[9] = target: T1, human claudin 18 splice variant 2 …; assay: flow cytometry on HEK293~CLDN18.2 cells, antibody up to 20 µg/ml
Method: Binding was analyzed by flow cytometry at antibody concentrations up to 20 μg/ml. Data points (n=2 replicates) are depicted as mean±SD.
as §1
The binding specificity was analyzed by flow cytometry using HEK293 transfectants engineered to overexpress human CLDN18.2 or the highly homologous protein human CLDN18.1.

[10] = target: T1, human claudin 18 splice variant 2 …; assay: flow cytometry on NCI-N87~CLDN18.2 cells, antibody up to 20 µg/ml
Method: as §1

[11] = target: T1, human claudin 18 splice variant 2 …; assay: flow cytometry on NUGC-4 10cE8 cells (endogenous CLDN18.2), second assay
[12] = target: T1, human claudin 18 splice variant 2 …; assay: flow cytometry on NUGC-4 10cF7-5 sort 3a cells (endogenous CLDN18.2), second assay
[13] = target: T1, human claudin 18 splice variant 2 …; assay: flow cytometry on NUGC-4 10cE8 cells (endogenous CLDN18.2), antibody up to 20 µg/ml
Method: as §1
Binding properties were tested at different antibody concentrations in a range of 0.1 to 20 μg/ml (FIG. 4, Table 8).

[14] = target: T1, human claudin 18 splice variant 2 …; assay: flow cytometry on NUGC-4 10cF7-5 sort 3a cells (endogenous CLDN18.2), antibody up to 20 µg/ml
Method: as §1

[15] = target: T1, human claudin 18 splice variant 2 …; assay: flow cytometry (Table 6); APC-conjugated secondary antibody; binding assay 1
Method: as §1
Antibodies marked with the same number (1 or 2) were tested in the same binding assay.

[16] = target: T1, human claudin 18 splice variant 2 …; assay: flow cytometry (Table 6); APC-conjugated secondary antibody; binding assay 1; normalized to IMAB362
Method: as §1

B1: mu mAB294 (antibody, V domains shown)
VH: QIQLVQSGPELKKPGETVKISCKASGYTFTNYGMNWVKQAPGKGLKWMGWINTNTGEPTYAEEFKGRFAFSLETSASTAYLQINNLKNEDTATYFCARLGFGNAMDYWGQGTSVTVSS
VL: DIVMTQSPSSLTVTAGEKVTMSCKSSQSLLNSGNQKNYLTWYQQKPGQPPKLLIYWASTRESGVPDRFTGSGSGTDFTLTISSVQAEDLAVYYCQNDYSYPLTFGAGTKLELK
notes: Tied by its number
binding result [1]: no binding | EC50 [2]: 0.348 µg/mL | Max. binding [MFI] [2]: 989 MFI | EC50 normalized [%] [3]: 53% | Max. binding normalized [%] [3]: 12%

B2: IMAB362-vcMMAE (antibody, human IgG1, kappa, V domains shown)
VH: QVQLQQPGAELVRPGASVKLSCKASGYTFTSYWINWVKQRPGQGLEWIGNIYPSDSYTNYNQKFKDKATLTVDKSSSTAYMQLSSPTSEDSAVYYCTRSWRGNSFDYWGQGTTLTVSS
VL: DIVMTQSPSSLTVTAGEKVTMSCKSSQSLLNSGNQKNYLTWYQQKPGQPPKLLIYWASTRESGVPDRFTGSGSGTDFTLTISSVQAEDLAVYYCQNDYSYPFTFGSGTKLEIKR
modifications: vcMMAE (Val-Cit linker) coupled to sulfhydryl groups set on lysine amines with 2-iminothiolane; drug to antibody ratio 4.5; sites not stated
notes: also called MMAE-conjugated IMAB362
EC50 [ng/ml] of reduction of cell viability (XTT, 72 h), BxPC-3~CLDN18.2 cells [4]: 48 ng/mL | EC50 [ng/ml] of reduction of cell viability (XTT, 72 h), BxPC-3~CLDN18.2 cells, second assay [4]: 43 ng/mL | EC50 [ng/ml] of reduction of cell viability (XTT, 72 h), NCI-N87~CLDN18.2 cells, second assay [4]: 180 ng/mL | EC50 [ng/ml] of reduction of cell viability (XTT, 72 h), NUGC-4 10cE8 cells [4]: 631 ng/mL | EC50 [ng/ml] of reduction of cell viability (XTT, 72 h), NUGC-4 10cF7-5 sort 3a cells [4]: 338 ng/mL | ADCC EC50 [ng/ml], NUGC-4 10cF7_5 sort3a p3151#10 cells, PBMC of Donor 1 [5]: 1080 ng/mL | ADCC EC50 [ng/ml], NUGC-4 10cF7_5 sort3a p3151#10 cells, PBMC of Donor 2 [5]: 275 ng/mL | CDC EC50 [ng/ml], KATO-III FGF-BP#12 adM p3151#25 cells [6]: 7240 ng/mL | CDC EC50 [ng/ml], NUGC-4 10cF7_5 sort3a p3151#10 cells [6]: 28300 ng/mL | EC50 [7]: 0.261 µg/mL | EC50 [8]: 0.183 µg/mL | EC50 [9]: 1.59 µg/mL | EC50 [10]: 0.103 µg/mL | EC50 [11]: 5.46 µg/mL | EC50 [12]: 4.05 µg/mL | EC50 [13]: 2.83 µg/mL | EC50 [14]: 2.52 µg/mL

B3: IMAB362-DM4 (antibody, human IgG1, kappa, V domains shown)
VH: QVQLQQPGAELVRPGASVKLSCKASGYTFTSYWINWVKQRPGQGLEWIGNIYPSDSYTNYNQKFKDKATLTVDKSSSTAYMQLSSPTSEDSAVYYCTRSWRGNSFDYWGQGTTLTVSS
VL: DIVMTQSPSSLTVTAGEKVTMSCKSSQSLLNSGNQKNYLTWYQQKPGQPPKLLIYWASTRESGVPDRFTGSGSGTDFTLTISSVQAEDLAVYYCQNDYSYPFTFGSGTKLEIKR
modifications: DM4 coupled via SPDB linker to primary amines (lysine side chains or N-terminus) of the antibody; drug to antibody ratio 3.2; sites not stated
EC50 [ng/ml] of reduction of cell viability (XTT, 72 h), BxPC-3~CLDN18.2 cells [4]: 43 ng/mL | EC50 [ng/ml] of reduction of cell viability (XTT, 72 h), BxPC-3~CLDN18.2 cells, second assay [4]: 54 ng/mL | EC50 [ng/ml] of reduction of cell viability (XTT, 72 h), NCI-N87~CLDN18.2 cells [4]: 75 ng/mL | EC50 [ng/ml] of reduction of cell viability (XTT, 72 h), NUGC-4 10cE8 cells [4]: 372 ng/mL | EC50 [ng/ml] of reduction of cell viability (XTT, 72 h), NUGC-4 10cF7-5 sort 3a cells [4]: 155 ng/mL | ADCC EC50 [ng/ml], NUGC-4 10cF7_5 sort3a p3151#10 cells, PBMC of Donor 1 [5]: 1150 ng/mL | ADCC EC50 [ng/ml], NUGC-4 10cF7_5 sort3a p3151#10 cells, PBMC of Donor 2 [5]: 217 ng/mL | CDC EC50 [ng/ml], KATO-III FGF-BP#12 adM p3151#25 cells [6]: 6440 ng/mL | CDC EC50 [ng/ml], NUGC-4 10cF7_5 sort3a p3151#10 cells [6]: 15800 ng/mL | EC50 [7]: 0.425 µg/mL | EC50 [8]: 0.507 µg/mL | EC50 [9]: 1.47 µg/mL | EC50 [10]: 0.274 µg/mL | EC50 [11]: 7.49 µg/mL | EC50 [12]: 3.91 µg/mL | EC50 [13]: 3.05 µg/mL | EC50 [14]: 2.6 µg/mL

B4: chim mAB62 (antibody, V domains shown)
VH: QVQLQQSGAELMKPGASVKISCKATGYTFSSYWIEWVKQRPGHGLEWIGEILPGSGSTNYNEKFKGKATFTADTSSNTAYMQLSSLTSEDSAVYYCARYDYPWFAYWGQGTLVTVSA
VL: QIVLTQSPAIMSASPGEKVTITCSASSSVSYMHWFQQKPGTSPKLWIYSTSNLASGVPARFSGSGSGTSYSLTISRMEAEDAATYYCQQRSSYPPTFGGGTKLEIKR
EC50 [15]: 32.3 µg/mL | Max. binding [MFI] [15]: 4080 MFI | EC50 normalized [%] [16]: 5540% | Max. binding normalized [%] [16]: 22%

B5: mu mAB62 (antibody, mouse IgG2a, V domains shown)
VH: QVQLQQSGAELMKPGASVKISCKATGYTFSSYWIEWVKQRPGHGLEWIGEILPGSGSTNYNEKFKGKATFTADTSSNTAYMQLSSLTSEDSAVYYCARYDYPWFAYWGQGTLVTVSA
VL: QIVLTQSPAIMSASPGEKVTITCSASSSVSYMHWFQQKPGTSPKLWIYSTSNLASGVPARFSGSGSGTSYSLTISRMEAEDAATYYCQQRSSYPPTFGGGTKLEIK
notes: mouse IgG2a kappa
binding result [1]: no binding | EC50 [2]: 27.9 µg/mL | Max. binding [MFI] [2]: 2800 MFI | EC50 normalized [%] [3]: 4280% | Max. binding normalized [%] [3]: 35%
